Experimental data from the Human Domainome abundance scans (Beltran et al. 2025).
± gives the uncertainty stated by the source.

B1: POU domain, class 4, transcription factor 1, residues 266 to 347; numbered along this chain, Q01851 (parent)
chain: RELEAFAERFKQRRIKLGVTQADVGSALANLKIPGVGSLSQSTICRFESLTLSHNNMIALKPILQAWLEEAEGAQREKMNKP

Variants of: B1
Assay: abundance fitness (aPCA) (normalised: wild type 0, dead -1); higher = more abundant; growth selection in yeast, the domain comes from the species named
Conditions: Homo sapiens

| Variant | abundance fitness |
| --- | --- |
| RELEAFAERFKQRRMKLGVTQADVGSALANLKIPGVGSLSQSTICRFESLTLSHNNMIALKPILQAWLEEAEGAQREKMNKP [I15M] | 0.005 ± 0.038 |
| RELEAFAERFKQRRQKLGVTQADVGSALANLKIPGVGSLSQSTICRFESLTLSHNNMIALKPILQAWLEEAEGAQREKMNKP [I15Q] | -0.013 ± 0.038 |
| RELEAFAERFKQRRCKLGVTQADVGSALANLKIPGVGSLSQSTICRFESLTLSHNNMIALKPILQAWLEEAEGAQREKMNKP [I15C] | -0.048 ± 0.049 |
| RELEAFAERFKQRRYKLGVTQADVGSALANLKIPGVGSLSQSTICRFESLTLSHNNMIALKPILQAWLEEAEGAQREKMNKP [I15Y] | -0.332 ± 0.046 |
| RELEAFAERFKQRRHKLGVTQADVGSALANLKIPGVGSLSQSTICRFESLTLSHNNMIALKPILQAWLEEAEGAQREKMNKP [I15H] | -0.083 ± 0.037 |
| RELEAFAERFKQRRWKLGVTQADVGSALANLKIPGVGSLSQSTICRFESLTLSHNNMIALKPILQAWLEEAEGAQREKMNKP [I15W] | -0.243 ± 0.048 |
| RELEAFAERFKQRRGKLGVTQADVGSALANLKIPGVGSLSQSTICRFESLTLSHNNMIALKPILQAWLEEAEGAQREKMNKP [I15G] | -0.286 ± 0.055 |
| RELEAFAERFKQRRRKLGVTQADVGSALANLKIPGVGSLSQSTICRFESLTLSHNNMIALKPILQAWLEEAEGAQREKMNKP [I15R] | -0.037 ± 0.036 |
| RELEAFAERFKQRRNKLGVTQADVGSALANLKIPGVGSLSQSTICRFESLTLSHNNMIALKPILQAWLEEAEGAQREKMNKP [I15N] | -0.113 ± 0.04 |
| RELEAFAERFKQRRDKLGVTQADVGSALANLKIPGVGSLSQSTICRFESLTLSHNNMIALKPILQAWLEEAEGAQREKMNKP [I15D] | -0.211 ± 0.06 |
| RELEAFAERFKQRRPKLGVTQADVGSALANLKIPGVGSLSQSTICRFESLTLSHNNMIALKPILQAWLEEAEGAQREKMNKP [I15P] | -0.989 ± 0.084 |
| RELEAFAERFKQRRAKLGVTQADVGSALANLKIPGVGSLSQSTICRFESLTLSHNNMIALKPILQAWLEEAEGAQREKMNKP [I15A] | -0.099 ± 0.038 |
| RELEAFAERFKQRRSKLGVTQADVGSALANLKIPGVGSLSQSTICRFESLTLSHNNMIALKPILQAWLEEAEGAQREKMNKP [I15S] | -0.138 ± 0.029 |
| RELEAFAERFKQRREKLGVTQADVGSALANLKIPGVGSLSQSTICRFESLTLSHNNMIALKPILQAWLEEAEGAQREKMNKP [I15E] | 0.02 ± 0.054 |
| RELEAFAERFKQRRFKLGVTQADVGSALANLKIPGVGSLSQSTICRFESLTLSHNNMIALKPILQAWLEEAEGAQREKMNKP [I15F] | -0.322 ± 0.039 |
| RELEAFAERFKQRRLKLGVTQADVGSALANLKIPGVGSLSQSTICRFESLTLSHNNMIALKPILQAWLEEAEGAQREKMNKP [I15L] | -0.022 ± 0.028 |
| RELEAFAERFKQRRVKLGVTQADVGSALANLKIPGVGSLSQSTICRFESLTLSHNNMIALKPILQAWLEEAEGAQREKMNKP [I15V] | -0.023 ± 0.035 |

| Variant | abundance fitness |
| --- | --- |
| RELEAFAERFKQRKIKLGVTQADVGSALANLKIPGVGSLSQSTICRFESLTLSHNNMIALKPILQAWLEEAEGAQREKMNKP [R14K] | -1.09 ± 0.14 |
| RELEAFAERFKQRLIKLGVTQADVGSALANLKIPGVGSLSQSTICRFESLTLSHNNMIALKPILQAWLEEAEGAQREKMNKP [R14L] | -0.768 ± 0.045 |
| RELEAFAERFKQRWIKLGVTQADVGSALANLKIPGVGSLSQSTICRFESLTLSHNNMIALKPILQAWLEEAEGAQREKMNKP [R14W] | -1.02 ± 0.098 |
| RELEAFAERFKQRIIKLGVTQADVGSALANLKIPGVGSLSQSTICRFESLTLSHNNMIALKPILQAWLEEAEGAQREKMNKP [R14I] | -0.866 ± 0.082 |
| RELEAFAERFKQRSIKLGVTQADVGSALANLKIPGVGSLSQSTICRFESLTLSHNNMIALKPILQAWLEEAEGAQREKMNKP [R14S] | -0.906 ± 0.059 |
| RELEAFAERFKQRAIKLGVTQADVGSALANLKIPGVGSLSQSTICRFESLTLSHNNMIALKPILQAWLEEAEGAQREKMNKP [R14A] | -0.919 ± 0.071 |
| RELEAFAERFKQRDIKLGVTQADVGSALANLKIPGVGSLSQSTICRFESLTLSHNNMIALKPILQAWLEEAEGAQREKMNKP [R14D] | -0.952 ± 0.18 |
| RELEAFAERFKQRYIKLGVTQADVGSALANLKIPGVGSLSQSTICRFESLTLSHNNMIALKPILQAWLEEAEGAQREKMNKP [R14Y] | -0.884 ± 0.098 |
| RELEAFAERFKQRHIKLGVTQADVGSALANLKIPGVGSLSQSTICRFESLTLSHNNMIALKPILQAWLEEAEGAQREKMNKP [R14H] | -1.16 ± 0.14 |
| RELEAFAERFKQRNIKLGVTQADVGSALANLKIPGVGSLSQSTICRFESLTLSHNNMIALKPILQAWLEEAEGAQREKMNKP [R14N] | -0.923 ± 0.12 |
| RELEAFAERFKQRQIKLGVTQADVGSALANLKIPGVGSLSQSTICRFESLTLSHNNMIALKPILQAWLEEAEGAQREKMNKP [R14Q] | -1.08 ± 0.12 |
| RELEAFAERFKQRVIKLGVTQADVGSALANLKIPGVGSLSQSTICRFESLTLSHNNMIALKPILQAWLEEAEGAQREKMNKP [R14V] | -0.932 ± 0.062 |
| RELEAFAERFKQRGIKLGVTQADVGSALANLKIPGVGSLSQSTICRFESLTLSHNNMIALKPILQAWLEEAEGAQREKMNKP [R14G] | -1.07 ± 0.081 |
| RELEAFAERFKQRFIKLGVTQADVGSALANLKIPGVGSLSQSTICRFESLTLSHNNMIALKPILQAWLEEAEGAQREKMNKP [R14F] | -1.07 ± 0.12 |
| RELEAFAERFKQRPIKLGVTQADVGSALANLKIPGVGSLSQSTICRFESLTLSHNNMIALKPILQAWLEEAEGAQREKMNKP [R14P] | -1.13 ± 0.12 |
| RELEAFAERFKQRMIKLGVTQADVGSALANLKIPGVGSLSQSTICRFESLTLSHNNMIALKPILQAWLEEAEGAQREKMNKP [R14M] | -0.914 ± 0.092 |
